In this assay the target is T1, flag-tagged hTERT protein from transfected 293T cells (human, UniProt O14746 1-1132).
T1 construct: also called hTERT from 293T cells; 293T lysate
The assay can be described thus: immunoprecipitation from 293T lysate, Western blot with peptide polyclonal antibody. On the procedure: Immunoprecipitation experiments were also carried out to verify the specificity of the 4A5 and 4B5 monoclonal antibodies. Protein G Sepharose beads (Pharmacia) were incubated with anti-mouse IgG (Amersham Biotech) in CHAPS buffer (0.5% CHAPS, 10 mM TRIS, 1 mM NaCl, 10% glycerol, 1 mM DTT, RNase inhibitor, Complete Protease Inhibitor; Boehringer Mannheim) at room temperature for 1 to 4 hours. The beads were washed and then incubated again at room temperature for 1 to 4 hours with 2 µg of one of the following antibodies: anti-GST, peptide polyclonal antibody, RT polyclonal antibody, 4A5 monoclonal antibody, 4B5 monoclonal antibody. For the negative control 4G6 antibody, the beads were incubated with 4G6 antibody in CHAPS buffer.
Following the incubation, the beads were washed with the aforementioned buffer and then incubated in the aforementioned buffer containing either 50 µl of hTERT-s200 generated by the TNT reaction on rabbit reticulocyte (see upper panels in FIG. 2) or 100 µl of 293T lysate (see lower panel in FIG. 2) for 1 to 4 hours at 4° C. The beads were washed again in the aforementioned buffer, the excess buffer removed form the beads and suspended in 4× SDS loading dye (see Sambrook et al, supra.). […] Western blotting was carried out as described above and probed with 0.28 µg/ml of peptide polyclonal hTERT antibody and binding was detected with the ECL method. […]

T1 sequence (O14746 whole entry): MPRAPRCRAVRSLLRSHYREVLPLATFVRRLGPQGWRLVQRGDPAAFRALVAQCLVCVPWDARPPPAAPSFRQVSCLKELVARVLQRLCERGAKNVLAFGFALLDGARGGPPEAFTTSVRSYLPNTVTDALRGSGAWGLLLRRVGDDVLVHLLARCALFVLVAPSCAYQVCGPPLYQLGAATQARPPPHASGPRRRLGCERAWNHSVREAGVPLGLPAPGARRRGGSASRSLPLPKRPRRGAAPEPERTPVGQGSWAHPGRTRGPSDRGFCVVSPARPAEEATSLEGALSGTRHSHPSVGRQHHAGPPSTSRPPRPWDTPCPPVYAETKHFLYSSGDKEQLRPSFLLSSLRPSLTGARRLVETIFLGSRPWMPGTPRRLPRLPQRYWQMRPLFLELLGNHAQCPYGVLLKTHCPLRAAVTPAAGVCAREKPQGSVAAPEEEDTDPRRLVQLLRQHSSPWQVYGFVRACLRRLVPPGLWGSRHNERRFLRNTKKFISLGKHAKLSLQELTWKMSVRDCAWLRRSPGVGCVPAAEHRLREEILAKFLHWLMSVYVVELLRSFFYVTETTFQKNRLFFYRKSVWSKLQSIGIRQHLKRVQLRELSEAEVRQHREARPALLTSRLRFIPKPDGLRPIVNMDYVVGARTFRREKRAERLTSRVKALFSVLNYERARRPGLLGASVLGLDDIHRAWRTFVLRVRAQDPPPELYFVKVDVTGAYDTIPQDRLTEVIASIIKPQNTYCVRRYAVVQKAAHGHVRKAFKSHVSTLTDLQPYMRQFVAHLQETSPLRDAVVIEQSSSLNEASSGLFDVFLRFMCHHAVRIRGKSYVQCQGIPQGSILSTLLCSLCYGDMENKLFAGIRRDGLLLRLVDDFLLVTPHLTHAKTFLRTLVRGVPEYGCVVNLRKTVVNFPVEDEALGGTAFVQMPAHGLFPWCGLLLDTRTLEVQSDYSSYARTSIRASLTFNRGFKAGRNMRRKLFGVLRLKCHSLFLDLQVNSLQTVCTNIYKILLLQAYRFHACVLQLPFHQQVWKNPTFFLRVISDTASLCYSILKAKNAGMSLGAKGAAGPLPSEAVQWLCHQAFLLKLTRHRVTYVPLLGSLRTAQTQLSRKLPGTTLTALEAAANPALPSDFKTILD

B1: 4A5 monoclonal antibody (hybridoma 4A5, ATCC PTA-2412) (antibody, V domains shown)
VH: EVKLVESGGGLVKPGGSLKLSCAASGFTFSSYAMSWVRQTPEKRLEWVASISSGGNTYYPDNVQGRFTISRDNARNILYLQMSSLRSEDTAMFYCAREGVYDTYGGVDYWGQGTTLTVSS
VL: DIVLTQSPTSLAVSLGQRATISCKASQSVDYDGDSFINWYQQTPGQPPKLLIYAASNLASGIPARFSGSGSGTDFTLNIHPVEEEDAATYYCQQSNEAPPTFGGGTKLEI
notes: Mouse monoclonal from hybridoma, characterized as IgG2B type, kappa light chain primers used; also called 4A5 mAb; 45A
Turning to B1, the binding result is recorded as “binds”.

Values taken from patent US7078491 (Amgen, dated 2006).
